The DeepSol protein solubility set

assay: soluble on expression in E. coli; label from the status in PepcDB or PDB records

Row | Sequence | soluble on expression in E. coli
1 | MTETGGRHLLEALTLCEVILSRYKRCGLQVDETETKAFQAVSERFHEITHATQGDNAAFVKSQKIIKMAPAIPTIGAVFQTPLESVTKLMEKCIDLCLPIKEVFIMLNEQISAVLRTKNTRTYYLDSGDDLLKDPVNGIAALVDERTPLGKTLFCTRPFSIAGTLYIPLLHNETVIGCVESPSGRTDYHSQAIIDAVLRVAATVIHNTIESERLNWNKEKAEAMLTMATQLARDNLDEAVLANSIMNTAKVLTESDRCSIFLVKDDTLEAHFEDGNIVAIPIATGIAGYVAQTGQTVKISDAYSDDRFNREVDKATGYRTKTILCMPVTYEGSIVAVAQLINKLDMVTESGLRLPRTFGKRDEELFQTFSMFAGASLRNCRINEKLINEKRKSDAILDVVTLLSNTDIRDVDGIVRHVLHGAKRLLYADRSALFLVDKERNELYSRIADSVAGKEIRFPCGQGIAGVVASTGIGENILDAYQDPRFNREVDKQLGYRTQTLLCEPIVLNGEILAVVQLVNKLNEAGEVTVFTESDRETFRVFSLFAGISINNSHLLEFAVKAGREMMELNENRALAGGRTGSLRNIKRPLAITETERQAVRDINLAHLDITSIDFDLFYLRENMDLPLDAAAAVAYRLIVGTGLPQKFRCRDDTLLNFILQCRKKYRNVPYHNFYHVVDVCQTIYTFLYKGAVCEKLTELDCFVLLVTALVHDLDHMGLNNSFYLKTDSPLGILSSASGNASVLEVHHCNLAVEILSDPDSDVFEGLDATDRTLAYRSMIDCVLATDMAKHNELLSLFLVAMEKPYRIGDVASRQMMMDVIVKAGDVSNVTKPFDISRLWAMAVTEEFYRQGDMEKEKGVEVLPMFDRSKNTELAKGQIGFIDFVAGPFFKKIVSASLTGMQWTVERVESNRLEWQRTLDLKAAGDGNK | not soluble
2 | MVGVLFTFFAWCQRDRDVVGTPFVSIRGIFQADHRAWCENRRRELTKPDGWMSLIGLHWLGPKAHYIGSSPDNGIRLAMGPPDMGMIERDGDVVWFTPHAGVPLTVDGQPLRGRVRVFSDADLTPTTIGFDDGKGWLTLLRRGDRFALRVKHVNAPSRLHFTGLEYWPSDPEWRISARYLPNKAGATLSIFNIVGMTANVPNAGVIAFERLGHTYRLQAIRAAGQALFVMFADRTSGHGSYPAGRFLEVDAPDKQGSVVLDFNRAYNPPCAFTLFTTCLLPPSENRLNLAVTAGEKAYHVSTVLPLEHHHHHH | not soluble
3 | MNELQFQQAAGISAGLSARWFPHIDAAMSEFGITAPLDQAMFIAQTGHESAGFTVLRESFNYSVEALKKTFGKRLTPYQCEMLGRIDGRQVAHQPQIANLVYGGRMGNKDAGDGWKYRGRGLIQITGLENYTRCGVALKLDLVANPGQLELERHAARSAAWFFVTKGCLKYSGDLVRVTQIINGGQNGFGDRRERFEKAKSVLV | not soluble
4 | MTAKKEHLFIVFENLIKIKSECSCEIFSECGISDITVKQIGYLKAIDEHGEVTFSRLAKITKNSKPTITEMVNKFVRMECVYREKCPEDGRIFYIRLTEKGQRIARAEESSLLRVIEKMAESLNEKEIETLIRILGKVR | not soluble
5 | MGSDKIHHHHHHMAKLLPYQKRWINDRAPVKFWEKSRRIGASWGDAADSALVASKVKDDGGMSTYYLSYNKDMTRQYVADVAGWAKKFNLVAGELEEIVLADEDKDVTIYQVRFASGHVVQGLSSNPSNLRSKQGRVRIDEAAFVEDLGELLKAAIALTMWGGDVAVISTHNGEDSEFNQYIQDIRAGKREYSLHRTDLDDALAEGLYKAICSAKGLTWSVEAEIRWRQKLIADYGDGADEELFCVPSRSSGNWLSRNLIEPCMSAEIPVLRWSPPTANFVDWPLDRAYREVQDWCEGELRPLLDKLHREYVGCRHFFGEDFGRSGDLTVDVPLLELENLSLVTPFLLELRNAPYRTQEQMLAYFVDRLPRFSGGALDARGNGQALAEYARQRYGPELIQEVMLSQGWYREHMPPLKARLEDRTILLPKDAGVLDDLRGIKVFKGIARPPEASIKGKDGQRHCDSAVALALALYACNSIEAGEEWACATAGGGMARRMTHGY | not soluble
6 | MPIHVDKPDTMQNELIDIVADGLRSNQIYTFRMILKHDYGTHKSEATFQADPAGRIDLKYAKPLRGSYYDADPMGLFLGMKPCEDFAYGGYLRCTPPVPFYYLLELFDSSGTLIDSTYIKKHWMHPKLIRTELEEDFCATLFKPPGDGPFPVVLDISGTGGGIHEHKGAMLASEGFVVLCLAFFQFKYLPQKMEDVDMEYFAKAINYLIDLPFTKNVIGIQGVSFGATIVDLLTTRHGDKIKALVSINGPQVVSDYLFMQENGAPIPHLSHGQVTLEHCQFINGVMCSHRNFQIMTEKLTPETEIPWERIPSDVKIRVIGSVDDLCQPSVHATYYRQRRLKETGHDVEVELVNGGHIMEPPYFPHHELVYAKYQGFYCGYGGEVVLHAKSQEKTWSNTIKFFQKALGNTKKIQDWDRLTVVVPPRKKSKL | not soluble
7 | MGSDKIHHHHHHMESYKGNKTTRKQIVSSIQMDIIKNRKIGEKLPSESEYANLFGTARSTVQKALRDLETMQLIEKVQGKGSFVIFKHPKIEMFNFRGFSEYAHQIGATPITKLIKKKKIDNGHKMLLKRLRSIKINDEIAPLTFDESILSLDDFPGLDQYNFEKGSLYDVLRNKYNTYPAIANLEVIPVAPEEEISNLLRVSKGNPLLKVNGFVYDSNSEIMEKVGIIYSDQARFKFTLGI | not soluble
8 | MSVLAVQAQRTSIGITAGTGTAWLSDTDRDVVFNPVWNAGATLVYSSETHWGFGADIKYSREGVKFTYAGTGNYNGQTMTTRVGSDFIRIPLRAIYFFNKNENAFRPNVSLGPSFGILTGGEIKTYDGDKNVIGTSKVSDSFRDVDFGLQGTAGASIMLSDGLWFSADIVYYQGLNKQNKNGTNTMLNSNVGINLGLRIGVGR | not soluble
9 | MSITLSDSAAARVNTFLANRGKGFGLRLGVRTSGCSGMAYVLEFVDEPTPEDIVFEDKGVKVVVDGKSLQFLDGTQLDFVKEGLNEGFKFTNPNVKDECGCGESFKLAAALDHHHHHH | soluble
10 | MGHHHHHHSHMDSKAIAERIKKLQAQQEHVRIGGKGTPRRKKKVIHKTAAADDKKLQSNLKKLSVTNIPGIEEVNMIKDDGTVIHFNNPKVQTSVPANTFSVTGSADNKQITEMLPGILNQLGPESLTHLKKLANNVTKLGPDGKGEDEDVPELVGDFDAASKNETKADEQ | not soluble
11 | EMRNLGGGEILHACPQESLDKPLPCIVFYHGFTSSKLVYSYFAVALAEAGFRVIMPDAPEHGARYQGDEAGRMQRFWPILQQNFREFPALREAIIAEGWLEGERLAVAGASMGGMTALGIMTHHPELNSVACLMGSGYFRSLSQTLFPSPDFDVDSLNEWDVSHQLASLARRPLLLWHGDADDVVPPEETFRLEQALRQGDLAARLTCVWQKGVRHRITPEALATTVAFFQQHL | not soluble
12 | MSLATALVLGYSAFDLGLFSDKDPRLKLIKKAIRKDLEAMAADGVSWLVFTGSLGFEYWVLEVAQEMKTEYGFQLATIFAFETHGENWNEGNQMKLSRFKQVDFVKYAYPRYEHKGQLRDYQQFLLENTTSSYLFYDEENETKLAYFYQKMKNQEDYFIKRLTFDQLNELAENFSENEGHHHHHH | soluble
13 | MSLSPAGGPDLAALAASSTSIDLPYLLAGVENENELDLYVVPSGKPVAVRAATFDSERQVYSLALDNPQRILTWTPASAPGGDEGNSTSLPLVPPGTVVYTGSSLNPVVTEQEGYPALDLLDQERLIITFPMDSGLPPILVVFKSPRYEAGTSTGHGLEHHHHHH | soluble
14 | MAHHHHHHMLILKNVEHTILLKIVKRSFSRNVNNNKFVIKPSSLRIRSDKNNFNDIINKYFPNRILKKRKQQDDYSKMNDKNEEKDKKYYLSSKIERRLKMEKVNDQSNISFYNVIPRDKNKNNYLLDSYNNINNDDSTNISDNTNISDNTNISDNTNISDNTNISDNINISDNINISDDINICDKLNICDNTNINLFGYDMTSHQVRVEEKENNLTRNNKKNVLEITKEEHDIQKYKNKLHKKIWILLKRKSNEKEFEHYYNMLEKYPLKDEVSYSILLHGKLLISKRKKDNAENYYDIIKECFKILNEMKVKKIHPTLVRFNEKLVLSYYELIKLNVHPSYKQWMKILRTVWFVSALVKARRQKFILRKMKKIKNKNSVSLDNFNGTFNIHNLESLYVENRDPLIANNVQQGI | soluble
15 | MGSDKIHHHHHHMDELYIMNPWWRDPEIINTDRHISMFENSTFKYFPENLFKKIPLNKPGIYTIRGPRQVGKTTFLKLYIRKLLRDGVKPSNIFFFTCDAVKDRFELIETMKAYFQIFERKAGETRYLFIDEITAVEDWQKSIKYLVDIGLLENSLLILTGSSAFDLKRSSERLPGRKGYGEDLVYLPLTFGEFLESLGISVERMSVDDIFLKSEEELRILYLKNSFLKEYFVKYLNTGGFPKVIDVFLKEGKIDEITKGVFRDFILGDAEKYLGSRIKVIEIFKKLPDIVGQRFSWNSLVDIFSGAIESVDTIQKYFEYLGYSFILMNVFFVDISRKTVRLKKQKKTYPIDRVVVDIIEEISGKQIKLPQIVEMLTLRHLMGNGKTLPNGMNLYDGPFFWYSDRGNEVDFVFEHGDSLIPVEINFQNNIHRSDYAGMKKVFKKGIVITQDAIFRDENIVAVPAWLFFAVFEGNE | not soluble
16 | MSLGVQPPNFSWVLPGRLAGLALPRLPAHYQFLLDLGVRHLVSLTERGPPHSDSCPGLTLHRLRIPDFCPPAPDQIDRFVQIVDEANARGEAVGVHCALGFGRTGTMLACYLVKERGLAAGDAIAEIRRLRPGSIETYEQEKAVFQFYQRTKEGHHHHHH | soluble
17 | AGHDGSQLAARLDLPQGPVLATALFAHCFTCSKDIPAARRIAARLAAMGIAVLRFDFTGLGHSEGEFANTTFTSNVGDLAAAARYLAGRDMAPALLIGHSLGGAAVLRARAQIASVRAVVTIGAPADPGHVAHHFETALPRIQAEGAAEVCLGGRPFRIGRDFVEDIAASALQPAIADLRAALLVLHAPRDETVSIDNASQIFMAAKHPKSFVTLDDADHLISRARDAEYAAEVIAAWAGRYVD | not soluble
18 | MTLDYHQPTTTNTTLPDDIHMKDPEEEEFEEYEDELLEEEEEFDEELEELENSDSASSLVSAGSPHGSSSSNGSHGSSPPLQVQSPSQGSGSSGSPTGQPEKRHICTVCGKGFSYFSILESHKRSHTGEKPYNCHFCQKTFAQKATLQVHERTHTGERPYKCRYCEKTFAQYGTKTVHEKSAHLGIRNYKCPKCDKLLSSPSALYTHKKTHGDKTFRCDFCPKTFALKNYLKLHVKQVHEQNERKHVCVYCNKGFAYAGSLQVHVRTHTGERPYVCKFCPKAFASQGNLQSHERTHTGERPYSCQFCQRTFIQKSQLTAHESTHLTQKHSVNPDSTTADILPVAGSVTDHQMVGNYECTFCNKKYPYASSLYIHMRKHTEKSAYSCDGCGKPYSQKISLNIHQDQCEAFKNRLKTTDSQFSHNCDGCGKSFVQRIALQIHVDSCEPHKNLARLKLSQQQNQNQNSDSESDTEMKICPLPNPPLTLAPTHQQIPPPVNIYAQQPPPNPLGSILGNTSLTPQTLNFGLPSLSSASFSSLNAHAPFTPVELPNSADFGPLTASKPHAVPFHPSEMCLSAFRKVPESSSISGLGSLSTSILSTQLLLQLQHTPDFNYLLNQNLLSSLAGLSGLSATLGPQLQATTPTSANQQPFLMAAPSAVQPLV | not soluble
19 | MGSDKIHHHHHHMPVAKKYFEIRWHGRAGQGAKSASQMLAEAALEAGKYVQAFPEYGAERTGAPMRAFNRIGDEYIRVRSAVENPDVVVVIDETLLSPAIVEGLSEDGILLVNTVKDFEFVRKKTGFNGKICVVDATDIALQEIKRGIPNTPMLGALVRVTGIVPLEAIEKRIEKMFGKKFPQEVIDANKRALRRGYEEVKCSE | soluble
20 | MGSDKIHHHHHHMNETVSLETREVRFLSVFDFDGTLTYRDSFVPFLRFAFGNRVFVRRMLRMAGPSLAYLCRRIDRDDLKARLIATFLTDVPVHVLEERALAYQNRFWETLMRPHALTAVADQVSSGSTVTICSASPSLLLRPFAEKLGVHLIATELEVVDGVLTGRIVGRNCRRDEKVCRLERHYGPLTQYSLRAWGDSRGDTELLAAALERFWKPFR | not soluble
